Test results: US20220332804A1 (CSL INNOVATION, published 2022)
Substitutions are numbered along the chain they refer to.

Tests used:
Test in all cases: SPR, KD relative to WT C2;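 note: biacore SPR at 37 °C, anti-C2 mAbs captured on anti-human IgG chips with alanine or serine point mutants of C2 as analyte, KD from 1:1 fit compared with wild-type C2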
human C2 N268A = molecular target: T1, human C2 N268A (human, UniProt P06681 21-752)
T1 sequence: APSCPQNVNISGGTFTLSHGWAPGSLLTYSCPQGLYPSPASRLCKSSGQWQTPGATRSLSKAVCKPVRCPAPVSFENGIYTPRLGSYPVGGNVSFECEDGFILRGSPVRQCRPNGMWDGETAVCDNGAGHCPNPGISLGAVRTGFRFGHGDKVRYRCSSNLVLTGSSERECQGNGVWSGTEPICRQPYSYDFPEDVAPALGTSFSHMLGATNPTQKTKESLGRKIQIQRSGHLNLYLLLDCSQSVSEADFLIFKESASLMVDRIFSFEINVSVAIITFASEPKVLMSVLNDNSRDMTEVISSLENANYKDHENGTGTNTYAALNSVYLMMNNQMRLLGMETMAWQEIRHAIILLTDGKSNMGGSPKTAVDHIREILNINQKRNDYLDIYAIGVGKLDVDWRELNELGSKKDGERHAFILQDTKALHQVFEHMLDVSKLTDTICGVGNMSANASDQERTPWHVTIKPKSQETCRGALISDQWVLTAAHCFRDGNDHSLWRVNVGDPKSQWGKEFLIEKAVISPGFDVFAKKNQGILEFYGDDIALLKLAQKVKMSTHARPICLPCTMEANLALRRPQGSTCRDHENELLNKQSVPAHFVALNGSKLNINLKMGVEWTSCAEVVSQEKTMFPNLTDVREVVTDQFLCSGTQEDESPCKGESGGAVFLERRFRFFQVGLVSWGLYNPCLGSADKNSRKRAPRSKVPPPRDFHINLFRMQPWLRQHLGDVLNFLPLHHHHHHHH

human C2 K457A = molecular target: T2, human C2 K457A (human, UniProt P06681 21-752)
T2 sequence: T1 sequence with A248N, K437A

human C2 A470S = molecular target: T3, human C2 A470S (human, UniProt P06681 21-752)
T3 sequence: T1 sequence with A248N, A450S

human C2 L620A = molecular target: T4, human C2 L620A (human, UniProt P06681 21-752)
T4 sequence: T1 sequence with A248N, L600A

B1: RF16-242 (antibody, human IgG4 S228P, lambda, V domains shown)
VH: EVQLLQSGAEVKKPGESLKISCKGSGYSFTSYWIGWVRQMPGKGLEWMGIIYPGDSDTRYSPSFQGQVTISADKSISTAYLQWSSLKASDTAMYYCARRGHYGDYFDYWGQGTLVTVSS
VL: SYELTQPPSVSVSPGQTARITCSGDALPKKYAYWYHQKSGQAPVLVIYEDRRRPSEIPERFSGSSSGTMATLTITGAQVEDEGVYFCYSRDRAGNQRVFGGGTQLTVLG
notes: pH-dependent anti-C2 antibody from a phage display library
Fold diff (human C2 N268A): 2 fold
Fold diff (human C2 K457A): 33 fold
Fold diff (human C2 A470S): 1 fold
Fold diff (human C2 L620A): 1 fold
